These results are taken from patent publication US11021533 (dated 2021).

The labels stand for the following.
B1: ZIKV-88 (antibody, V domains shown)
VH: QVQLLESGGGVVQPGRSLRLSCVASGLTFSTSAMHWVRQAPGKGLEWVAVISYDGSYKFYADSVRDQFTISRDNSKTTLYLQMDGLTPEDTAVYYCARGYNDDSSGSYWYFDLWGRGTLVTVSS
VL: QSVLTQPPSVSAAPGQKVTMSCSGSSSNIGSNFVSWYQQLPGTAPKVLIFDNNQRPSGIPDRFSGSKSGTSATLAITGLQPGDEAVYHCGTWDSSLTFAVFGGGTKLTVL
B2: ZIKV-190 (antibody, V domains shown)
VH: EVQLVESGGGLIQPGGSLRLSCAASGFTFSSYAMSWVRQAPGKGLEWVSAISGSGGSTYYADSVKGRFTISRDNSKNTLSLQMNSLRAEDTAVYYCARAFYYDFWTFDYWGQGTLVTVSS
VL: QSALTQPRSVSGSPGQSVTISCTGTSSDVGGYNYVSWYQQHPGKAPKLMIYAVTKRPSGVPDRFSGSKSGNTASLTISGLQAEDEADYYCCSYAGSYTYVVFGGGTKLTVL
B3: ZIKV-204 (antibody, V domains shown)
VH: QVTLRESGPALLKPTQTLTLTCTFSGFSLSTNETCVSWIRQPPGKALEWLALIDWDDDQYSSTSLAARLTVSKDTSKNQVVLTMTNVAPVDTATYYCALTRPTLTAQNGDKYYNYYYGMDVWGQGTLVTVSS
VL: EIVLTQSPGTLSLSPGERATLSCRASQSVSSMYLAWYQQKRGQPPRLLIYGTFNRATGIPDRFSGSGSGTDFTLTISRLEPEDFAVYYCQQYGSSSFTFGGGTKVEIK
B4: ZIKV-19 (antibody, V domains shown)
VH: QVQLVQSGPEVKKPGSSVKVSCKASGVSFNTYEISWVRQAPGQGLEWMGRIIPIFATPTYALKFQGRVTITTDESTTTGYMELSSLRSEDTAVYYCAGRPYGPGSWLPLDVWGQGTLVTVSS
VL: DIVMTQSPSSLSASVGDRVTITCRASQGISSYLAWYQQKPGKLPKLLIYAASTLQSGVPSRFSGSGSGTDFTLTISSLQPEDVAAYYCQKYDSAPFTFGPGTKVDLK
B5: ZIKV-195 (antibody, V domains shown)
VH: QVQVVESGGGVVQPGRSLRLSCAASGFTFSSSAMHWVRQAPGKGLEWVAVISYDGSNKYYGDSVKGRFTISRDNSKNTLYLQMHSLRAEDTAVYYCAKDRDAYNTVGYFAYYYGMDVWGQGTLVTVSS
VL: QSVLTQPPSVSEAPRQRVTISCSGSSSNIGNNAVNWYQQLPGKAPKLLIYYDDLLPSGVSDRFSGSKSGTSASLAISGLQSEDEADYYCAAWDDSLTRYVFGTGTKVTVL

In the test the target is ZIKV E protein ectodomain (UniProt A0A024B7W1 291-745). In words: ELISA. For orientation: An ELISA detects its analyte on a solid surface through an enzyme-linked reagent.
Sequence of ZIKV E protein ectodomain (A0A024B7W1 291-745): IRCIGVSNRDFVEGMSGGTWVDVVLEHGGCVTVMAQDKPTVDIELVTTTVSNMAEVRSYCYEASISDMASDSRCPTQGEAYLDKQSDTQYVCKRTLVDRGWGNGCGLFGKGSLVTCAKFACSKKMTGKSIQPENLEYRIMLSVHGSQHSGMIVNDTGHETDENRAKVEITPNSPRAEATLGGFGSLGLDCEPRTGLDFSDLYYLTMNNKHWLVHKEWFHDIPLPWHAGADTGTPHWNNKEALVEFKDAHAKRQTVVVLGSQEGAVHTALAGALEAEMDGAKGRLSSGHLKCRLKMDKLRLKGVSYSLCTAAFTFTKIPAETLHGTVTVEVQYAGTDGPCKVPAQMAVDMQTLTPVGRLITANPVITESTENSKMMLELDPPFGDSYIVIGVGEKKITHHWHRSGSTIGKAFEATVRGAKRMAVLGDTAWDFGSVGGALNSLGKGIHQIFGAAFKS
A word on the EC50: it is the concentration giving half of the maximal effect. A high value points to a less potent agent. Molecule B1 returned a concentration giving a half-maximal response (EC50) of 0.07 µg/mL.

Consider B2, for which a half-maximal response (EC50) required 0.082 µg/mL.

With B3, the EC50 is 0.048 µg/mL.

Take B4: a half-maximal response (EC50) required 0.165 µg/mL.

B5: a half-maximal effect (EC50) was put at 0.695 µg/mL.
